Results as given in PMC8876890, “Engineering Chimeras by Fusing Plant Receptor-like Kinase EMS1 and BRI1 Reveals the Two Receptors’ Structural Specificity and Molecular Mechanisms” (International Journal of Molecular Sciences, 2022).

B1: GST-BRI1-CD (domain or fragment, Arabidopsis thaliana, UniProt O22476 814-1196, looked up)
chain: GREMRKRRRKKEAELEMYAEGHGNSGDRTANNTNWKLTGVKEALSINLAAFEKPLRKLTFADLLQATNGFHNDSLIGSGGFGDVYKAILKDGSAVAIKKLIHVSGQGDREFMAEMETIGKIKHRNLVPLLGYCKVGDERLLVYEFMKYGSLEDVLHDPKKAGVKLNWSTRRKIAIGSARGLAFLHHNCSPHIIHRDMKSSNVLLDENLEARVSDFGMARLMSAMDTHLSVSTLAGTPGYVPPEYYQSFRCSTKGDVYSYGVVLLELLTGKRPTDSPDFGDNNLVGWVKQHAKLRISDVFDPELMKEDPALEIELLQHLKVAVACLDDRAWRRPTMVQVMAMFKEIQAGSGIDSQSTIRSIEDGGFSTIEMVDMSIKEVPEGKL
notes: BRASSINOSTEROID … 1 (BRI1) LRR receptor-like kinase, Arabidopsis thaliana, cytoplasmic domain, residues 814-1196, cloned into pGEX-4T-3; also called cytoplasmic domain of BRI1; source: E. coli BL21 (DE3), purified (Glutathione Sepharose 4B)
B2: GST-EMS1-CD (domain or fragment, Arabidopsis thaliana, UniProt Q9LYN8 849-1192, looked up)
chain: RRWAMTKRVKQRDDPERMEESRLKGFVDQNLYFLSGSRSREPLSINIAMFEQPLLKVRLGDIVEATDHFSKKNIIGDGGFGTVYKACLPGEKTVAVKKLSEAKTQGNREFMAEMETLGKVKHPNLVSLLGYCSFSEEKLLVYEYMVNGSLDHWLRNQTGMLEVLDWSKRLKIAVGAARGLAFLHHGFIPHIIHRDIKASNILLDGDFEPKVADFGLARLISACESHVSTVIAGTFGYIPPEYGQSARATTKGDVYSFGVILLELVTGKEPTGPDFKESEGGNLVGWAIQKINQGKAVDVIDPLLVSVALKNSQLRLLQIAMLCLAETPAKRPNMLDVLKALKEI
notes: EXCESS MICROSPOROCYTES1 (EMS1) LRR receptor-like kinase, Arabidopsis thaliana, cytoplasmic domain, residues 849-1192, cloned into pGEX-4T-3; also called cytoplasmic domain of EMS1; EMS1 kinase domain; source: E. coli BL21 (DE3), purified (Glutathione Sepharose 4B)

Assays:
BSK3-His = biological target: T1, BSK3-His (UniProt Q8W4L3 1-489); assay: pull-down; GST fusion proteins on Glutathione Sepharose 4B beads, incubated with BSK1-His or BSK3-His 4-6 h at 4 °C, washed 6-8 times with His lysis buffer; blot with His and GST antibodies; settings: both partners purified
T1 construct: BSK3, receptor-like cytoplasmic kinase of subfamily RLCK-XII, full-length cDNA in pET-28a; The species is most likely Arabidopsis thaliana, the plant of the whole study; source: E. coli BL21 (DE3), purified (Ni-NTA Agarose)

BSK1-His = biological target: T2, BSK1-His (UniProt Q944A7 1-512); assay: as above; settings: both partners purified
T2 construct: BSK1, receptor-like cytoplasmic kinase of subfamily RLCK-XII, full-length cDNA in pET-28a; The species is most likely Arabidopsis thaliana, the plant of the whole study; source: E. coli BL21 (DE3), purified (Ni-NTA Agarose)
T2 sequence (Q944A7 whole entry): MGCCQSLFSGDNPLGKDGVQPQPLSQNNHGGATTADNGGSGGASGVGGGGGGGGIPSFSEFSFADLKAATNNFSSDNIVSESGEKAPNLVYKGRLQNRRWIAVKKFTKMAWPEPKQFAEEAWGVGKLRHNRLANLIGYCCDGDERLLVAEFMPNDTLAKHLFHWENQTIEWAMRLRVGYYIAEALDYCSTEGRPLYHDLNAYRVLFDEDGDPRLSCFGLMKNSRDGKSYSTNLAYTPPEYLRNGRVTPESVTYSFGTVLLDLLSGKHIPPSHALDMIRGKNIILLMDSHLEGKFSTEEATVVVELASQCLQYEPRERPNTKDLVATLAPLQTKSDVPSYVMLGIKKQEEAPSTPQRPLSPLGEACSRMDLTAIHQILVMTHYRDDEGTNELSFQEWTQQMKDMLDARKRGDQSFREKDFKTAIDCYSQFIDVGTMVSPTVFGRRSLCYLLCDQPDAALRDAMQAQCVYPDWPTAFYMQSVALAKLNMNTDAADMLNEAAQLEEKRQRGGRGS

T1 sequence (Q8W4L3 whole entry, the tested form may be a part): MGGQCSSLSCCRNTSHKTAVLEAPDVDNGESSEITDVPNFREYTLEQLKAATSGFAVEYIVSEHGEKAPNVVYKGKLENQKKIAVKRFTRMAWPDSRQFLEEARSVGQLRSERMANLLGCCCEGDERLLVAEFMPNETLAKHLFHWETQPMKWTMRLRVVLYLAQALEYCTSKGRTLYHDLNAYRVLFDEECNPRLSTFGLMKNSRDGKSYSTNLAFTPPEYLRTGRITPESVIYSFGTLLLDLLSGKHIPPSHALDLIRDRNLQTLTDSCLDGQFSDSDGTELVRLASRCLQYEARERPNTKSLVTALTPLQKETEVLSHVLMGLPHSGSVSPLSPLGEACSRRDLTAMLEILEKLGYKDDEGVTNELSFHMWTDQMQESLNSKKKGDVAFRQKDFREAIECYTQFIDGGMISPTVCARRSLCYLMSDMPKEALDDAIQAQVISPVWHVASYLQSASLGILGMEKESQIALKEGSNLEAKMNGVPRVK

Row | binding result (BSK3-His) | binding result (BSK1-His) | Binder
1 | binds | binds | B1
2 | binds | binds | B2
